In PMC6858450:
Primed or numbered codes have the meaning given here. No end group written: not given here. *: point of attachment. Mca = COc1ccc2c(CC(=O)*)cc(=O)oc2c1; Dnp′ = not defined here

Key:
[1] = tested on: securin-separase fusion C2029S (catalytically dead) (Homo sapiens); assay: fluorescence polarization; conditions: 25 mM HEPES pH 7.8, 50 mM KCl, 5 mM MgCl2, 0.5 mM TCEP; 1 nM DNA; 30 min at 25 °C
[2] = target: active (apo, securin-free) human separase (human) (UniProt Q14674)
[3] = target: active (apo, securin-free) human separase (human) (UniProt Q14674); remark: listed apart in the source
[4] = target: active (apo, securin-free) human separase (human) (UniProt Q14674); remark: listed apart in the source

Chain of UniProt Q14674 (Q14674 whole entry S1126A): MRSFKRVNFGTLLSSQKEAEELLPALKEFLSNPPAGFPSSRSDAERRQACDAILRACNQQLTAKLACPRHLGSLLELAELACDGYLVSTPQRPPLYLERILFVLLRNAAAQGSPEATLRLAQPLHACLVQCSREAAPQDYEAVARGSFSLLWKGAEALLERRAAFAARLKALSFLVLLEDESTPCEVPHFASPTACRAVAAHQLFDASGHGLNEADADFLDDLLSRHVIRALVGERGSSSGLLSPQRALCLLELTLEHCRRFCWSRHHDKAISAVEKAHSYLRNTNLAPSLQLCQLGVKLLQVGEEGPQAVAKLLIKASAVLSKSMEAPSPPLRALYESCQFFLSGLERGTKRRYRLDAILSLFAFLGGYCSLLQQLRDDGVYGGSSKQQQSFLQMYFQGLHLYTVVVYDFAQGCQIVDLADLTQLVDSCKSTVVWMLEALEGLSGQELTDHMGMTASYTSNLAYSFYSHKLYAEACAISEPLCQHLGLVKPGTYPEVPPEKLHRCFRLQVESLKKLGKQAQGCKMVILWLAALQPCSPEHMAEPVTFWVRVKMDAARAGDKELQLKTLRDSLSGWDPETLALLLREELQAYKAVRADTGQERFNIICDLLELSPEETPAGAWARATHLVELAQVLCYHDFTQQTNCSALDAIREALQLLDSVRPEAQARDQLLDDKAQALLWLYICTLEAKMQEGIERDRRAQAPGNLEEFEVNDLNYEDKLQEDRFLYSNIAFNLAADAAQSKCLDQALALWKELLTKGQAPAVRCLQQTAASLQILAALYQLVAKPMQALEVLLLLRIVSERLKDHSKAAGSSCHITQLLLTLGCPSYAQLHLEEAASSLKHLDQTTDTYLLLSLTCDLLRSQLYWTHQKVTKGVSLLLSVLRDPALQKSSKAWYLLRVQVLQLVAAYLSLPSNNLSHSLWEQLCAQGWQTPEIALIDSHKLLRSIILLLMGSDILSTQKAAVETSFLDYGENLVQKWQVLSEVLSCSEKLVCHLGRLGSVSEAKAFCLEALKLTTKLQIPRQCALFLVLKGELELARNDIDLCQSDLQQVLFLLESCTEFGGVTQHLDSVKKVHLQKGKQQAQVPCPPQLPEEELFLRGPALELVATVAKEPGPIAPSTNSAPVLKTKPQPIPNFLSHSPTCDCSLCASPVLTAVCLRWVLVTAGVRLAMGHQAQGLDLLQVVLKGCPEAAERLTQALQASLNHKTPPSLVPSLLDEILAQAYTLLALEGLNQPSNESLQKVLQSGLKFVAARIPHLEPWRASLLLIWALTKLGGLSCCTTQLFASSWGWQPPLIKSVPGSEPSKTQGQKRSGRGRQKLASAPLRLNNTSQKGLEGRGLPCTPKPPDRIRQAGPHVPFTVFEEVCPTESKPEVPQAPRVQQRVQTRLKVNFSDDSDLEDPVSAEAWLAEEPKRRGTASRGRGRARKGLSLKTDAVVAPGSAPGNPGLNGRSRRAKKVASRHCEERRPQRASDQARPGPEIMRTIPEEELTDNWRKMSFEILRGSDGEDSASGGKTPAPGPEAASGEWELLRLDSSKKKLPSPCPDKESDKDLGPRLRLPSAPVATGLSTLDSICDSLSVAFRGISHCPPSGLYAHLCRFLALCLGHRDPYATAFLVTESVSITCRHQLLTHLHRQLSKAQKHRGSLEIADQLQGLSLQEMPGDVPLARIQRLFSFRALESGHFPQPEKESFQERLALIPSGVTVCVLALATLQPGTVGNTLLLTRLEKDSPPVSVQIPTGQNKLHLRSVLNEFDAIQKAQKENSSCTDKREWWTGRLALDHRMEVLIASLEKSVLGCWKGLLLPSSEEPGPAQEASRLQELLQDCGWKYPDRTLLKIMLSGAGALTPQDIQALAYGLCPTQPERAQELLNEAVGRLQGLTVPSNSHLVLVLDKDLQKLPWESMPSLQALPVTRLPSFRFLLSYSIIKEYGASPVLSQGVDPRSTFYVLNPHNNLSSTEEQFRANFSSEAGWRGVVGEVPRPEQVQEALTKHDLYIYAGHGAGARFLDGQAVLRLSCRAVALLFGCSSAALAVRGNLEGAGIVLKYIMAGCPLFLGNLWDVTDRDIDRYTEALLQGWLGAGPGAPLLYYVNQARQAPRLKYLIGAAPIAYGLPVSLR

Row | Molecule | Kd [1] [nM] | further results
1 | 50 bp 2 | 220 | –
2 | 50 bp | 300 | –
3 | 25 bp | 800 | –
4 | Mca-DDREIMREGS-{Dnp′} [Mca-…-Dnp, Scc1 site 1 substrate peptide] | – | KM of cleavage of the FRET dye-quencher peptide by purified active separase (Michaelis-Menten analysis) [2]: 70 µM
5 | separase biosensor H2B-mRuby2-Scc1(142-467)-mNeonGreen, ^255Leu-Pro to Ala-Ala (domain or fragment) EITMREEVGNISILQENDFGDFGMDDREIMREGSAFEDDDMLVSTTTSNLLLESEQSTSNLNEKINHLEYEDQYKDDNFGEGNDGGILDDKLISNNDGGIFDDPPALSEAGVMAAEQPAHDDMDEDDNVSMGGPDSPDSVDPVEPMPTMTDQTTLVPNEEEAFALEPIDITVKETKAKRKRKLIVDSVKELDSKTIRAQLSDYSDIVTTLDLAPPTKKLMMWKETGGVEKLFSLPAQPLWNNRLLKLFTRCLTPLVPEDLRKRRKGGEADNLDEFLKEFENPEVPREDQQQQHQQRDVIDEPIIEEPSRLQESVMEASRTNIDESA | – | cleavage of the separase biosensor in U2OS cells in anaphase (loss of GFP relative to RFP on chromosomes); the enzyme is the endogenous separase of the cells [3]: 50%
6 | securin^RE fragment (aa 93-150) (domain or fragment, also: 35S-methionine-labeled) MTEKTVKAKSSVPASDDAYPEIEKFREFNPLDFESFDLPEEHQIAHLPLSGVPLMILD | – | cleavage of the 35S-labeled securin^RE fragment (93-150) by separase in vitro (SDS-PAGE, Phosphorimaging) [4]: 50%
